Data taken from publication PMC10285447.

Key:
[1] = molecular target: P5C3-IgM-P (pentameric P5C3 IgM) (human) (UniProt P01591); test: ELISA; […] (from 500 ng/mL with P5C3, […]
[2] = molecular target: H4-IgM-P (pentameric H4 IgM) (human) (UniProt P01591); test: ELISA

SARS-CoV-2 spike protein RBD (Wuhan strain), recombinant (from UniProt P0DTC2 319-541) (domain or fragment)
EC50 [1]: 0.016 nM | EC50 [2]: 0.169 nM
